Test results from US20120100139A1 (APTEVO RESEARCH AND DEVELOPMENT, published 2012).
Blank lines part the entries; values can stand above or below the molecule they belong to.

Assays:
[1] = target: CD86-mIgG (Ancell, Inc) (UniProt P42081); experiment: SPR (BIAcore T100), CD86-mIgG immobilized on CM5; second site
[2] = target: CD86-mIgG (Ancell, Inc) (UniProt P42081); experiment: SPR (BIAcore T100), CD86-mIgG immobilized on CM5; steady-state equilibrium fit
[3] = target: CD86-mIgG (Ancell, Inc) (UniProt P42081); experiment: SPR (BIAcore T100), CD86-mIgG immobilized on CM5; first site
[4] = target: T1, CD80-mIg (Ancell Catalog #510-020) (UniProt P33681 35-242); experiment: SPR (BIAcore T100), CD80-mIgG immobilized on CM5; steady-state equilibrium fit
T1 construct: Bought reagent; also called CD80-mIgG; sCD80
T1 sequence (looked up): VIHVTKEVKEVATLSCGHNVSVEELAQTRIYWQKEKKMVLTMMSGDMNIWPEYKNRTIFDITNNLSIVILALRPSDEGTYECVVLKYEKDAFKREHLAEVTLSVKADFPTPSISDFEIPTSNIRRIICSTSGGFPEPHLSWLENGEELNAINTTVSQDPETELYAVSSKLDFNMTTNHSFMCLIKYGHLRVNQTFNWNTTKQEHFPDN
Description: (§1) Surface plasmon resonance (SPR) measurements were performed on a BIAcore™ T100 SPR (Pharmacia Biotech AB, Uppsala) using HBS-EP+ (GE Healthcare) as a running buffer. […] CTLA4-containing constructs were injected for 150 seconds, at a flow rate of 10 μl/min, in a series of concentrations from 5 nM to 1 μM. Dissociation was monitored for 600 seconds, and the surface was regenerated by injecting 50 mM sodium citrate, 500 mM sodium chloride, pH 4.0, for 60 seconds. […] Data were analyzed using BiaEvaluation for the T100 software (version 2.0.1, GE Healthcare).

[5] = target: T2, Murine CD86-mIgG (R&D Systems, Inc) (murine, UniProt P42082 24-244, limits assumed); experiment: SPR (BIAcore T100), murine CD86-mIgG immobilized on CM5; bivalent analyte model, first site
T2 construct: also called muCD86
T2 sequence (looked up): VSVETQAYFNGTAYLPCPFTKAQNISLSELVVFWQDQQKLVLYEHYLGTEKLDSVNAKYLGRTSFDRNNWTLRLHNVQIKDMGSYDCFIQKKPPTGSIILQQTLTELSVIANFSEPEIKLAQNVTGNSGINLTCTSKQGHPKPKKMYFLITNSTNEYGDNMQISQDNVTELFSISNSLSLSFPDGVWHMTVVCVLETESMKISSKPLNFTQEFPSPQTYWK
Description: (§2) SPR measurements were performed on a BIAcore™ T100 SPR (Pharmacia Biotech AB, Uppsala) using HBS-EP+ (GE Healthcare) as a running buffer. Murine CD86-mIgG (25 μg/mL in 10 mM sodium acetate, pH 4.0, R&D Systems, Inc) was directly immobilized onto a CM5 chip using standard amine coupling chemistry (Biacore Amine Coupling Kit, GE Healthcare), with final immobilization levels of 150, 493, and 746 Ru. CTLA4-containing constructs were injected for 150 seconds, at a flow rate of 10 μl/min, in a series of concentrations from 4 nM to 8 μM. Dissociation was monitored for 600 seconds (CTLA4 constructs) or 1200 seconds (GL1 constructs), and the surface was regenerated by injecting 10 mM glycine, pH 1.7, for 60 seconds. […] Data were analyzed using BiaEvaluation for the T100 software (version 2.0.1, GE Healthcare).

[6] = target: T2, Murine CD86-mIgG (R&D Systems, Inc); experiment: SPR (BIAcore T100), murine CD86-mIgG immobilized on CM5; steady-state equilibrium, multiple Rmax fit
Description: as §2

[7] = target: T3, CD86-mIgG (Ancell, Inc) (UniProt P42081 24-247, limits assumed); experiment: SPR (BIAcore T100), CD86-mIgG immobilized on CM5; steady-state equilibrium fit
T3 construct: Bought reagent
T3 sequence (looked up): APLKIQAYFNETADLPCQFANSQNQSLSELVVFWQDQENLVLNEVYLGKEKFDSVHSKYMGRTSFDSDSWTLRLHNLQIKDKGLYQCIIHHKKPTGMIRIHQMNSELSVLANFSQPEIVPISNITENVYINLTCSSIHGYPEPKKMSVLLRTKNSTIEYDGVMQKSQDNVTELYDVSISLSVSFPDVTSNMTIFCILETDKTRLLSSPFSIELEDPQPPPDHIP

[8] = target: T1, CD80-mIg (Ancell Catalog #510-020); experiment: SPR (BIAcore T100), CD80-mIgG immobilized on CM5; bivalent analyte model, second site
Description: as §1

[9] = target: T2, Murine CD86-mIgG (R&D Systems, Inc); experiment: SPR (BIAcore T100), murine CD86-mIgG immobilized on CM5; bivalent analyte model, second site
Description: as §2

[10] = target: T3, CD86-mIgG (Ancell, Inc); experiment: SPR (BIAcore T100), CD86-mIgG immobilized on CM5; bivalent analyte model, first site
Description: SPR measurements were performed on a BIAcore™ T100 SPR (Pharmacia Biotech AB, Uppsala) using HBS-EP+ (GE Healthcare) as a running buffer. […] CTLA4-containing constructs were injected for 150 seconds, at a flow rate of 10 μl/min, in a series of concentrations from 4 nM to 10 μM. Dissociation was monitored for 600 seconds, and the surface was either regenerated by injecting 50 mM sodium citrate, 500 mM sodium chloride, pH 5.0, for 60 seconds (wild type CTLA4) or 10 mM glycine, pH 1.7 (L104E A29Y CTLA4). […] Data were analyzed using BiaEvaluation for the T100 software (version 2.0.1, GE Healthcare).

[11] = target: T1, CD80-mIg (Ancell Catalog #510-020); experiment: SPR (BIAcore T100), CD80-mIgG immobilized on CM5; bivalent analyte model, first site
Description: as §1

[12] = target: T4, PD1 ectodomain fused to a C-terminal AviTag, biotinylated (biotinylated on the AviTag with the BirA enzyme); experiment: SPR (BIAcore T100), biotinylated PD1 captured on neutravidin; bivalent analyte model, first site
T4 construct: also called biotinylated PD1
T4 chain: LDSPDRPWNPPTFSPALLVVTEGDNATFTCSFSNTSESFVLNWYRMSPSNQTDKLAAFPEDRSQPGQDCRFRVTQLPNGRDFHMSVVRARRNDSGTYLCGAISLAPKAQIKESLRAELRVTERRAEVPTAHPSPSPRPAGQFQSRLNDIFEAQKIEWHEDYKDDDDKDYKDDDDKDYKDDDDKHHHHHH
Description: (§3) SPR measurements were performed on a BIAcore™ T100 SPR (Pharmacia Biotech AB, Uppsala) using HBS-P+ (GE Healthcare) as a running buffer. […] PDL1/2-containing constructs were injected for 120 seconds, at a flow rate of 30 μl/min, in a series of concentrations from 6 nM to 2 μM. Dissociation was monitored for 1200 seconds, and the surface was regenerated by injecting 50 mM NaOH, 1M NaCl for 30 seconds.
(§4) Data were analyzed using BiaEvaluation for the T100 software (version 2.0.1, GE Healthcare).

[13] = target: T4, PD1 ectodomain fused to a C-terminal …; experiment: SPR (BIAcore T100), biotinylated PD1 captured on neutravidin; steady-state equilibrium fit
Description: as §3, §4

Second Site ka [1]: 0.0203 s⁻¹
Second Site kd [1]: 0.0722 s⁻¹
Kd [2]: 50.6 nM
koff [3]: 0.00018 s⁻¹
kon [3]: 94100 M⁻¹ s⁻¹
Molecule: muIL 10-Ig

Kd [4]: 19.1 nM
koff [5]: 0.0418 s⁻¹
kon [5]: 32100 M⁻¹ s⁻¹
Kd [6]: 870 nM
Kd [7]: 670 nM
Second Site ka [8]: 0.00406 s⁻¹
Second Site kd [8]: 0.00706 s⁻¹
Second Site ka [9]: 0.00026 s⁻¹
Second Site kd [9]: 0.00193 s⁻¹
koff [10]: 0.0091 s⁻¹
kon [10]: 45100 M⁻¹ s⁻¹
koff [11]: 0.00235 s⁻¹
kon [11]: 90800 M⁻¹ s⁻¹
B1: xceptor including a CTLA4 ectodomain with the L104E A29Y mutations and an IL10 domain (Fc fusion)
chain: MHVAQPAVVLASSRGIASFVCEYASPGKYTEVRVTVLRQADSQVTEVCAATYMMGNELTFLDDSICTGTSSGNQVNLTIQGLRAMDTGLYICKVELMYPPPYYEGIGNGTQIYVIDPEPCPDSDLEPKSSDKTHTCPPCPAPEAAGAPSVFLFPPKPKDTLMISRTPEVTCVVVDVSHEDPEVKFNWYVDGVEVHNAKTKPREEQYNSTYRVVSVLTVLHQDWLNGKAYACAVSNKALPAPIEKTISKAKGQPREPQVYTLPPSRDELTKNQVSLTCLVKGFYPSDIAVEWESNGQPENNYKTTPPVLDSDGSFFLYSKLTVDKSRWQQGNVFSCSVMHEALHNHYTQKSLSLSPGQRHNNSSLNTGTQMAGHSPNSSPGQGTQSENSCTHFPGNLPNMLRDLRDAFSRVKTFFQMKDQLDNLLLKESLLEDFKGYLGCQALSEMIQFYLEEVMPQAENQDPDAKAHVNSLGENLKTLRLRLRRCHRFLPCENKSKAVEQVKNAFNKLQEKGIYKAMSEFDIFINYIEAYMTMKIRN
notes: the mutations are in the entry

koff [12]: 0.00724 s⁻¹
kon [12]: 165000 M⁻¹ s⁻¹
Kd [13]: 42 nM
B2: PDL2-Fc (Fc fusion)
chain: LFTVTVPKELYIIEHGSNVTLECNFDTGSHVNLGAITASLQKVENDTSPHRERATLLEEQLPLGKASFHIPQVQVRDEGQYQCIIIYGVAWDYKYLTLKVKASYRKINTHILKVPETDEVELTCQATGYPLAEVSWPNVSVPANTSHSRTPEGLYQVTSVLRLKPPPGRNFSCVFWNTHVRELTLASIDLQSQMEPRTHPTLEPKSSDKTHTCPPCPAPEAAGAPSVFLFPPKPKDTLMISRTPEVTCVVVDVSHEDPEVKFNWYVDGVEVHNAKTKPREEQYNSTYRVVSVLTVLHQDWLNGKAYACAVSNKALPAPIEKTISKAKGQPREPQVYTLPPSRDELTKNQVSLTCLVKGFYPSDIAVEWESNGQPENNYKTTPPVLDSDGSFFLYSKLTVDKSRWQQGNVFSCSVMHEALHNHYTQKSLSLSPG
